Laboratory results from article PMC3961380, “Activation of 2′ 5′-Oligoadenylate Synthetase by Stem Loops at the 5′-End of the West Nile Virus Genome”.

T1: OAS1 p42 isoform (transcript variant 2), wild type (human), P00973-2
T1 sequence: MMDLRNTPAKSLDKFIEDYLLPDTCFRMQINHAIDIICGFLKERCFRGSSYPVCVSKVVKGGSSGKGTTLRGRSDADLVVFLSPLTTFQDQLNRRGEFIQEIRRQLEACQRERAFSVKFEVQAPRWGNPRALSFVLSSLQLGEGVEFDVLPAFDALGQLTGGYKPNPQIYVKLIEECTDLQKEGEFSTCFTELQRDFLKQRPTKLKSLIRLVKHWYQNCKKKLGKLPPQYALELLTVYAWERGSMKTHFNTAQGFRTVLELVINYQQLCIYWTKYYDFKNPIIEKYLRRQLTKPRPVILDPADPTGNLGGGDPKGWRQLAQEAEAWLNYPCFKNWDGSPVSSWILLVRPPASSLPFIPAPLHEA

T2: OAS1 p42 isoform (transcript variant 2), wild type (human, UniProt P00973-2 1-364)
T2 sequence: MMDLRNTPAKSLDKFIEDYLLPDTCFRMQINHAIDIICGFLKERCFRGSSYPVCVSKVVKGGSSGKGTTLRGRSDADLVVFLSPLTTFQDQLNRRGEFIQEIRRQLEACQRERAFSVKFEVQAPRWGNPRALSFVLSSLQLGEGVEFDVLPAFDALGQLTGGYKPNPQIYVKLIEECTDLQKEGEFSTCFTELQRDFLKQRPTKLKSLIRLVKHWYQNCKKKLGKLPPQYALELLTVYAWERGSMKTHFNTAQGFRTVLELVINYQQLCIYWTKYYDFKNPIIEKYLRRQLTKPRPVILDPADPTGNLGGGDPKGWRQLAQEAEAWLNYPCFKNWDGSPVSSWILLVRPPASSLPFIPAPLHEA


Key:
[1] = tested on: T1, OAS1 p42 isoform (transcript variant 2), wild type (human), P00973-2; assay: OAS1 activation kinetics (Kapp, PPi assay); conditions: pH 7.5, 10 min at room temperature (~20 C)
OAS1 S162G (human) = assay: OAS1 activation kinetics (Kapp, PPi assay); conditions: pH 7.5, 10 min at room temperature (~20 C)
[2] = molecular target: T2, OAS1 p42 isoform (transcript variant …); assay: OAS1 activation kinetics (Kapp, PPi assay); 400 nM OAS1; […], pH 7.5, 10 min at room temperature (~20 C); […]; conditions: protein: recombinant; tags: none after TEV cleavage of N-terminal GNSHT tag (GB1, NusA, Streptavidin, 6xHis); label: none (SYBR Gold stain); two stem loops
[3] = molecular target: T2, OAS1 p42 isoform (transcript variant …); assay: OAS1 activation kinetics (Kapp NA); 400 nM OAS1; no detectable affinity; […], pH 7.5, 10 min at room temperature (~20 C); […]; conditions: protein: recombinant; tags: none after TEV cleavage of N-terminal GNSHT tag (GB1, NusA, Streptavidin, 6xHis); label: none (SYBR Gold stain); stem loop

Row | Molecule | K half [1] [nM] | binding result [3] | further results
1 | WNV SLI | 5830 |  | 
2 | WNV SLI/II | 528 |  | 
3 | WNV SLI/II/III | 1450 |  | K half (OAS1 S162G (human)): 1490 nM
4 | WNV SLII/III (structured_RNA) RNA: GCUGUUUCUUAGCACGAAGAUCUCGAUGUCUAAGAAACCAGGAGGGCCCGGCAAGAGCCGGGCUGUCAAUAUGCU |  |  | apparent K (half saturation) [2]: 5.78 ± 0.452 µM
5 | GCUGUUUCUUAGCACGAAGAUCUCGAUGUCUAAGAAACC (structured_RNA) [WNV SLII] |  | no binding | 
6 | AGGAGGGCCCGGCAAGAGCCGGGCUGUCAAUAUGCU (structured_RNA) [WNV SLIII] |  | no binding | 
